Data on one molecule can be found in US20210002358A1.

The assay has as its target tau seeds in spinal cord homogenates of P301S transgenic mice (aggregated transgenic human tau) (human), P10636. Put plainly: cell-based or functional assay.

tau seeds in spinal cord homogenates of P301S transgenic mice (aggregated transgenic human tau) (human), P10636, sequence (P10636 other isoform, or with tags, fused parts or gaps P301S P301S): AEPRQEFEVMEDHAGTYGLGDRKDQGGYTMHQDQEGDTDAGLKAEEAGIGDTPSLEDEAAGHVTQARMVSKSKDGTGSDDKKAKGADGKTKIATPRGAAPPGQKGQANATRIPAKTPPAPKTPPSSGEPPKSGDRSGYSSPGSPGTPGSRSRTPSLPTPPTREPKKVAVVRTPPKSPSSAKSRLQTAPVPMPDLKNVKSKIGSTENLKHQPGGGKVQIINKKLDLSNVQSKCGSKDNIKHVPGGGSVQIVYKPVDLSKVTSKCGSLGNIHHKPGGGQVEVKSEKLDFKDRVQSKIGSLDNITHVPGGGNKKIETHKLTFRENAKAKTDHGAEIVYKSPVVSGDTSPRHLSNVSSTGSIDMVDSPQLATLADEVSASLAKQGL

B1: PT82 mAb (recombinantly expressed, mouse IgG2a/kappa) (antibody, V domains shown)
VH: EVKLEESGGGLVQPGGSMKLSCVASGFTFSNYWMNWIRQSPEKGLEWVAQIRLQSDNYATRYAESVKGRFTISRDESKTSVYLQMNNLRTEDTGIYYCTGGTTYWGQGTLVTVSA
VL: DIVMTQSQKFMSTSVGDRVSITCKASQNVGTAVAWYQQKPGQSPKLLIYSASIRYTGVPDRFTGSGSGTDFTLTINYMQSEDLADYFCQQFSSYPYTFGGGTKLEIK
Take B1: the K18 aggregate formation, FRET-positive HEK cells counted by FACS came out at 3 nM.
